Data published in patent publication US20210347832.

How the values were obtained:
C16-CathS-SIINFEKL = system: T1, C16-CathS-SIINFEKL
T1 sequence: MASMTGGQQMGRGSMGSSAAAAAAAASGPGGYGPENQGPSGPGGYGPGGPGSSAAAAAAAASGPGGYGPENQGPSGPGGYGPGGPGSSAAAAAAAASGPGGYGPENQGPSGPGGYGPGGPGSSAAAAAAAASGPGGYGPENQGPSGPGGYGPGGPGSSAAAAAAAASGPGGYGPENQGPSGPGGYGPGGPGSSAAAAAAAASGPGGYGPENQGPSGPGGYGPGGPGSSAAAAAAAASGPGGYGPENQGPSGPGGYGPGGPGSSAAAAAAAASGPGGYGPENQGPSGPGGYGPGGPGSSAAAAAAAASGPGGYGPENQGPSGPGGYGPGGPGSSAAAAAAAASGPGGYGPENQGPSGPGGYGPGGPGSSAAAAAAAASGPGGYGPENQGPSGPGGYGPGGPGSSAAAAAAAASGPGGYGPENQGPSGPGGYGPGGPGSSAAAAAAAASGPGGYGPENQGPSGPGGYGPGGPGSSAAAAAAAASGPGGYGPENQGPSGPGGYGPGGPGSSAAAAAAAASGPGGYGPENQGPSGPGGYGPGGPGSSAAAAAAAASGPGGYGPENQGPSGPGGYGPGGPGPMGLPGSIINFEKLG

C16-CathB-SIINFEKL = system: T2, C16-CathB-SIINFEKL
T2 sequence: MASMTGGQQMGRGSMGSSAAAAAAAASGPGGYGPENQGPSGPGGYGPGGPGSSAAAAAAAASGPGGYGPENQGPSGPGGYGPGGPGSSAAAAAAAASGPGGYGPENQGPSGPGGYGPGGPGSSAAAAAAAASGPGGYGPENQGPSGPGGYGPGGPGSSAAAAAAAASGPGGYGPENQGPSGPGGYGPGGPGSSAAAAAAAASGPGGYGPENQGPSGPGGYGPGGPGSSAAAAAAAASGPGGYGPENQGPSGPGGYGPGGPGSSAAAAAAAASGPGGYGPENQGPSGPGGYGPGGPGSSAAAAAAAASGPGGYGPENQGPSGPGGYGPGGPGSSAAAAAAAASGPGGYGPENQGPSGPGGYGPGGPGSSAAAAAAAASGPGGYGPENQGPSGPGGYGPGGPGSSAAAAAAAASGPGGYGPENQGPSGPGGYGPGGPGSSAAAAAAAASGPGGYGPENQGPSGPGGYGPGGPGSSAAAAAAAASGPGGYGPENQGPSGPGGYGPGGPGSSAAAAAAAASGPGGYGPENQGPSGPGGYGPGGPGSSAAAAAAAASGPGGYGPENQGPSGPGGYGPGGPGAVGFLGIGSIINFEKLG

Row | Substance | release of cleaved SIINFEKL peptide from particles (RP-HPLC, 96 h) (C16-CathS-SIINFEKL) | release of cleaved SIINFEKL peptide from particles (RP-HPLC, 96 h) (C16-CathB-SIINFEKL) | release of cleaved SIINFEKL peptide from particles (RP-HPLC, 1-96 h) (C16-CathS-SIINFEKL) | release of cleaved SIINFEKL peptide from particles (RP-HPLC, 1-96 h) (C16-CathB-SIINFEKL)
1 | cathepsin B enzyme | Cathepsin S enzyme shows the better cleavage of SIINFEKL (SEQ ID NO: 11) peptides from both C16 hybrid protein particles than cathepsin B | Cathepsin S enzyme shows the better cleavage of SIINFEKL (SEQ ID NO: 11) peptides from both C16 hybrid protein particles than cathepsin B | – | –
2 | cathepsin S enzyme | – | – | Cathepsin S enzyme shows the better cleavage of SIINFEKL (SEQ ID NO: 11) peptides from both hybrid polypeptide particles | Cathepsin S also cleaves SIINFEKL (SEQ ID NO: 11) peptides from particles designed for cathepsin B release, but slower and in a lesser extent
